B1: mRNA-splicing (parent)
chain: AGUUGCUGCUGGGAGCUCCAGCACAGUGAAAUGGACAGAAGGGCAGAGCAA

Variants of: B1
Experiment: exon inclusion enrichment index; higher = more inclusion; WT1 exon 5 minigene, HEK293

Point of comparison: G5C C6G U7C U10C G42A G43C, “exon inclusion enrichment index” value 5.39. Against it:
- G5C C6U G8C C9U U10C C16U U17G — lower, 0.905
- G5C C6U G8C C9U U10C C16U U17A — lower, 1.65
- G5C C6U G8C C9U U10C C16U U17C — lower, 1.08
- G5C C6U G8C C9U U10C A30G A31U — lower, 0.63
- G5C C6U G8C C9U U10C A30G A31G — lower, 0.469
- G5C C6U G8C C9U U10C A30G A31C — lower, 0.276
- G5C C6U G8C C9U U10C A47C G48A — lower, 1.12
- G5C C6U G8C C9U U10C A47C G48C — lower, 1.78
- G5C C6U G8C C9U U10C A47C G48U — lower, 1.77
- G5C C6U G8C C9U U10C C19A A20U — lower, 0.553
- G5C C6U G8C C9U U10C C19A A20C — lower, 0.813
- G5C C6U G8C C9U U10C C19A A20G — lower, 0.213
- G5C C6G U7C U10G G11A — lower, 2.98
- G5C C6G U7C U10G G11C — lower, 2.32
- G5C C6G U7C U10G G11U — lower, 2.66
- G5C C6G U7C U10C U32G — lower, 0.601
- G5C C6G U7C U10C U32C — lower, 4.75
- G5C C6G U7C U10C U32A — lower, 3.12
- G5C C6U G8C C9U U10C A40U G41A — lower, 0.0602
- G5C C6U G8C C9U U10C A40U G41C — lower, 2.71
- G5C C6U G8C C9U U10C A40U G41U — lower, 0.94
- G5C C6G U7C U10C G34A A35G — lower, 2.26
- G5C C6G U7C U10C G34A A35U — lower, 1.96
- G5C C6G U7C U10C G34A A35C — lower, 2.92
- G5C C6U G8C C9U U10C A31C — lower, 2.29
- G5C C6U G8C C9U U10C A31G — lower, 2.47
- G5C C6U G8C C9U U10C A31U — lower, 1.74
- G5C C6U — lower, 0.0627
- G5C C6G U7C U10C U32G G33C — lower, 3.31
- G5C C6G U7C U10C U32G G33A — lower, 1.79
- G5C C6G U7C U10C U32G G33U — lower, 1.88
- G5C C6G U7C U10C G38A A39G — lower, 2.72
- G5C C6G U7C U10C G38A A39U — lower, 0.365
- G5C C6G U7C U10C G38A A39C — lower, 2.65
- G5C C6G U7G G8U U10C — lower, 1.74
- G5C C6U G8C C9U U10C A29U A30C — lower, 1.51
- G5C C6U G8C C9U U10C A29U A30G — lower, 2.16
- G5C C6U G8C C9U U10C A29U A30U — lower, 0.629
- G5C C6G U7C U10C G34U — lower, 1.32
- G5C C6G U7C U10C G34A — lower, 2.69
- G5C C6G U7C U10C G34C — lower, 1.79
- G5C C6U G8C C9U U10C A35C C36U — lower, 0.258
- G5C C6U G8C C9U U10C A35C C36G — lower, 1.57
- G5C C6U G8C C9U U10C A35C C36A — lower, 1.37
- G5C C6U G8C C9G U10G — lower, 3.42
- G5C C6U G8C C9G U10A — lower, 3.12
- G5C C6U G8C C9G U10C — lower, 3.48
- G5C C6U G8C C9U U10C A25C G26U — lower, 2.7
- G5C C6U G8C C9U U10C A25C G26A — lower, 3.25
- G5C C6U G8C C9U U10C A25C G26C — lower, 2.25
- G5C C6G U7C U10C G34U A35C — lower, 1.66
- G5C C6G U7C U10C G34U A35U — lower, 1.2
- G5C C6G U7C U10C G34U A35G — lower, 1.24
- G5C C6U G8C C9U U10C A20C — lower, 1.41
- G5C C6U G8C C9U U10C A20G — lower, 2.69
- G5C C6U G8C C9U U10C A20U — lower, 2.17
- G5C C6G U7C U10C G42A G43A — lower, 4.65
- G5C C6G U7C U10C G42A G43U — lower, 5.36
- G5C C6U G8C C9U U10C C16A U17C — lower, 1.6
- G5C C6U G8C C9U U10C C16A U17G — lower, 1.15
- G5C C6U G8C C9U U10C C16A U17A — lower, 1.38
- G5C C6U G8C C9U U10A — lower, 0.186
- G5C C6U G8C C9U U10C — lower, 2.2
- G5C C6U G8C C9U U10C A25U G26C — lower, 2.38
- G5C C6U G8C C9U U10C A25U G26U — lower, 1.7
- G5C C6U G8C C9U U10C A25U G26A — lower, 2.23
- G5C C6U G8C C9U U10C A40G G41C — lower, 3.24
- G5C C6U G8C C9U U10C A40G G41A — lower, 0.782
- G5C C6U G8C C9U U10C A40G G41U — lower, 1.75
- G5C C6U G8C C9U U10C A47U — lower, 1.87
- G5C C6U G8C C9U U10C A47G — lower, 0.327
- G5C C6U G8C C9U U10C A47C — lower, 2.38
- G5C C6U G8C C9U U10C C19A — lower, 0.881
- G5C C6G U7C U10G — lower, 1.86
- G5C C6G U7C U10C U32C G33U — lower, 2.45
- G5C C6G U7C U10C U32C G33C — lower, 3.68
- G5C C6G U7C U10C U32C G33A — lower, 2.09
- G5C C6U G8C C9U U10C A29G — lower, 2.54
- G5C C6U G8C C9U U10C A29U — lower, 0.63
- G5C C6U G8C C9U U10C A29C — lower, 1.75
- G5C C6U G8C C9U U10C A35G C36G — lower, 0.14
- G5C C6U G8C C9U U10C A35G C36U — lower, 0.016
- G5C C6U G8C C9U U10C A35G C36A — lower, 1.07
- G5C C6U C9U U10C — lower, 1.13
- G5C C6U G8A C9U U10C — lower, 0.941
- G5C C6G U7C U10C G46A A47U — lower, 3.68
- G5C C6G U7C U10C G46A A47G — lower, 1.33
- G5C C6G U7C U10C G46A A47C — lower, 3.6
- G5C C6U G8C C9U U10C A30G — lower, 2.12
- G5C C6U G8C C9U U10C A30U — lower, 1.34
- G5C C6U G8C C9U U10C A30C — lower, 2.23
- G5C C6U G8C C9U U10C A45U G46C — lower, 1.3
- G5C C6U G8C C9U U10C A45U G46A — lower, 1.39
- G5C C6U G8C C9U U10C A45U G46U — lower, 0.648
- G5C C6G U7C U10C G38C A39G — lower, 2.71
- G5C C6G U7C U10C G38C A39U — lower, 0.532
- G5C C6G U7C U10C G38C A39C — lower, 2.86
- G5C C6U G8C C9U U10C A31G U32A — lower, 3.83
- G5C C6U G8C C9U U10C A31G U32G — lower, 1.04
- G5C C6U G8C C9U U10C A31G U32C — lower, 3.89
- G5C C6U G8C C9U U10C A20U G21U — lower, 1.12
- G5C C6U G8C C9U U10C A20U G21C — lower, 1.62
- G5C C6U G8C C9U U10C A20U G21A — lower, 0.91
- G5C C6G U7C U10C G46C A47C — lower, 2.58
- G5C C6G U7C U10C G46C A47U — lower, 2.37
- G5C C6G U7C U10C G46C A47G — lower, 3.52
- G5C C6U G8C C9U U10A G11A — lower, 0.661
- G5C C6U G8C C9U U10A G11U — lower, 0.953
- G5C C6U G8C C9U U10A G11C — lower, 1.84
- G5C C6U G8C C9U U10C A35C — lower, 0.541
- G5C C6U G8C C9U U10C A35U — lower, 0.452
- G5C C6U G8C C9U U10C A35G — lower, 0.766
- G5C C6G U7C U10C G46C — lower, 2.78
- G5C C6G U7C U10C G46U — lower, 2.51
- G5C C6G U7C U10C G46A — lower, 3.39
- G5C C6U G8C C9U U10C A39C A40U — lower, 1.13
- G5C C6U G8C C9U U10C A39C A40C — lower, 2.43
- G5C C6U G8C C9U U10C A39C A40G — lower, 2.03
- G5C C6U G8C C9U U10C A23U C24G — lower, 2.38
- G5C C6U G8C C9U U10C A23U C24A — lower, 0.79
- G5C C6U G8C C9U U10C A23U C24U — lower, 0.198
- G5C C6U G8C C9U U10C A45G — lower, 3.56
- G5C C6U G8C C9U U10C A45U — lower, 2.45
- G5C C6U G8C C9U U10C A45C — lower, 2.06
- G5C C6U G8C C9U U10C A40C — lower, 2.94
- G5C C6U G8C C9U U10C A40U — lower, 1.67
- G5C C6U G8C C9U U10C A40G — lower, 1.61
- G5C C6U G8C C9U U10C A45C G46U — lower, 0.726
- G5C C6U G8C C9U U10C A45C G46C — lower, 1.22
- G5C C6U G8C C9U U10C A45C G46A — lower, 1.12
- G5C C6U G8C C9U U10C A47G G48A — lower, 1.24
- G5C C6U G8C C9U U10C A47G G48U — lower, 0.205
- G5C C6U G8C C9U U10C A47G G48C — lower, 0.706
- G5C C6U G8C C9U U10C A37C — lower, 3.08
- G5C C6U G8C C9U U10C A37G — lower, 2.83
- G5C C6U G8C C9U U10C A37U — lower, 1.73
- G5C C6G U7C U10C G42U — lower, 4.02
- G5C C6G U7C U10C G42A — lower, 4.32
- G5C C6G U7C U10C G42C — lower, 4.75
- G5C C6U G8C C9U U10C A40C G41A — lower, 0.768
- G5C C6U G8C C9U U10C A40C G41C — lower, 2.97
- G5C C6U G8C C9U U10C A40C G41U — lower, 0.895
- G5C C6G U7C U10C G43C C44U — lower, 3.09
- G5C C6G U7C U10C G43C C44G — higher, 6.55
- G5C C6G U7C U10C G43C C44A — lower, 3.83
- G5C C6U G8C C9U U10C A39U — lower, 0.0783
- G5C C6U G8C C9U U10C A39G — lower, 0.96
- G5C C6U G8C C9U U10C A39C — lower, 0.436
- G5C C6U G8C C9U U10C A29C A30G — lower, 3.25
- G5C C6U G8C C9U U10C A29C A30U — lower, 1.18
- G5C C6U G8C C9U U10C A29C A30C — lower, 2.52
- G5C C6G U7C U10C G43A — lower, 5.08
- G5C C6G U7C U10C G43U — lower, 2.89
- G5C C6G U7C U10C G43C — lower, 2.7
- G5C C6U G8C C9U U10C A30C A31G — lower, 3.01
- G5C C6U G8C C9U U10C A30C A31U — lower, 2.1
- G5C C6U G8C C9U U10C A30C A31C — lower, 2.9
- G5C C6G U10C — lower, 2.11
- G5C C6G U7C U10C U27C G28A — lower, 3.28
- G5C C6G U7C U10C U27C G28U — lower, 2.8
- G5C C6G U7C U10C U27C G28C — lower, 4.03
- G5C C6G U7C U10C G41U G42U — lower, 2.79
- G5C C6G U7C U10C G41U G42C — lower, 3.95
- G5C C6G U7C U10C G41U G42A — lower, 1.45
- G5C C6G U7C U10C G41A — lower, 2.7
- G5C C6G U7C U10C G41C — lower, 4.53

From the RNAGym collection of RNA variant scans (doi:10.1101/gr.219683.116)
